# B1: sarcotoxin IA (protein, listed as Sarcophaga peregrina)
# chain: MNFQNIFIFVALILAVFAGQSQAGWLKKIGKKIERVGQHTRDATIQGLGIAQQAANVAATARG
# How the values were obtained:
# [1] = tested on: Orobanche aegyptiaca seeds; assay: Petri dish assay: effect of SLP on O. aegyptiaca seed germination and radicle elongation; format: in vivo
# Method: The effect of the direct application of the lytic toxin Sarcotoxin IA (SLP) to seeds of the parasitic plant O. aegyptiaca was assayed. SLP was obtained by production in S. cerevisiae, and applied to seeds during both preconditioning and germination stages as follows: Yeast strain Y426-MATa yeast cells transformed with a yeast shuttle vector-pFL61 to express the sarcotoxin IA were cultured in -URA liquid media at 30° C. for 72 h as described in Aly et al. (1999). The cultures were then centrifuged for 5 min at 4000 g and the supernatant collected for SLP assay. Quantitative evaluation of the SLP concentration present in the growth media was obtained by Western blot analysis. The effect of SLP on O. aegyptiaca seeds was determined in a Petri dish assay. Parasite seeds were surface-sterilized, dispersed on Whatman GF/A glass-fiber (0.7 cm diam.), covered with the same filter, and placed in a Petri dish. […] After incubation in dark at 26° C. for 7 days, seeds were rated for radicles damage.
# [2] = tested on: several bacteria, including plant pathogenic bacteria; conditions: SLP secreted from yeast cells (Aly et al, 1999); cited from earlier work
# [3] = SLP 10 μM applied at germination (three days after GR24)
# [4] = SLP 20 μM applied at germination
# [5] = SLP 20 μM applied at preconditioning
# [6] = SLP 30 μM applied at germination
# [7] = SLP 30 μM applied at preconditioning
# [8] = SLP 40 μM applied at germination
# [9] = SLP 40 μM applied at preconditioning
molecule,measurement,setting,value
B1,Gemination (% of control),[1]; [3],80 ± 6 % of control
same,Radicle length (% of control),[1]; [3],65 ± 5 % of control
same,Radicle length (% of control),[1]; SLP 10 μM applied at preconditioning (mixed with GR24),65 ± 6 % of control
same,Gemination (% of control),"[1]; SLP 10 μM applied at preconditioning (mixed with GR24), 7 days, 26° C., dark",76 ± 3 % of control
same,Gemination (% of control),[1]; [4],76 ± 8 % of control
same,Radicle length (% of control),[1]; [4],47 ± 3 % of control
same,Gemination (% of control),[1]; [5],69 ± 6 % of control
same,Radicle length (% of control),[1]; [5],52 ± 2 % of control
same,Gemination (% of control),[1]; [6],43 ± 7 % of control
same,Radicle length (% of control),[1]; [6],33 ± 4 % of control
same,Gemination (% of control),[1]; [7],6 ± 1 % of control
same,Radicle length (% of control),[1]; [7],12 ± 8 % of control
same,Gemination (% of control),[1]; [8],36 ± 2 % of control
same,Radicle length (% of control),[1]; [8],4 ± 1 % of control
same,Gemination (% of control),[1]; [9],0 % of control
same,Radicle length (% of control),[1]; [9],0 % of control
same,radicle elongation and seed germination of the parasite,"[1]; presence of SLP, in words",significantly reduced
same,cytotoxic effect against bacteria,[2],potent cytotoxic effect
